Substitutions are numbered along the chain they refer to. Numbers in names are those of the source.

The labels stand for the following.
B1: R54W: site-directed mutant R54W of human QC (protein)
chain: MAGGRHRRVVGTLHLLLLVAALPWASRGVSPSASAWPEEKNYHQPAILNSSALWQIAEGTSISEMWQNDLQPLLIERYPGSPGSYAARQHIMQRIQRLQADWVLEIDTFLSQTPYGYRSFSNIISTLNPTAKRHLVLACHYDSKYFSHWNNRVFVGATDSAVPCAMMLELARALDKKLLSLKTVSDSKPDLSLQLIFFDGEEAFLHWSPQDSLYGSRHLAAKMASTPHPPGARGTSQLHGMDLLVLLDLIGAPNPTFPNFFPNSARWFERLQAIEHELHELGLLKDHSLEGRYFQNYSYGGVIQDDHIPFLRRGVPVLHLIPSPFPEVWHTMDDNEENLDESTIDNLNKILQVFVLEYLHL
B2: W329A: site-directed mutant W329A of human QC (protein)
chain: B1 chain with W54R, W329A
B3: W207F: site-directed mutant W207F of human QC (protein)
chain: B1 chain with W54R, W207F
B4: W207L: site-directed mutant W207L of human QC (protein)
chain: B1 chain with W54R, W207L
B5: F146A: site-directed mutant F146A of human QC (protein)
chain: B1 chain with W54R, F146A
B6: F325A: site-directed mutant F325A of human QC (protein)
chain: B1 chain with W54R, F325A
B7: K144A: site-directed mutant K144A of human QC (protein)
chain: B1 chain with W54R, K144A
B8: E201D: site-directed mutant E201D of human QC (protein)
chain: B1 chain with W54R, E201D
B9: Q304L: site-directed mutant Q304L of human QC (protein)
chain: B1 chain with W54R, Q304L

The data set relates to human QC. Nature of the data set: Kinetic parameters of wild-type and mutant human QC. The following applies: pH 8.0. Type of data set: biochemical.
B1: the Km (commonly the concentration of substrate that gives half-maximal velocity) stood at 760 ± 40 µM; the kcat (as a rule, the number of substrate molecules converted per active site and unit of time at saturation) is 7.35 ± 0.26 s⁻¹.

For the molecule B2, the Km was determined as 29500 ± 2290 µM and the kcat stood at 1.35 ± 0.07 s⁻¹.

Turning to B3, the Km was found to be 590 ± 50 µM and the turnover number (kcat) worked out at 2.32 ± 0.07 s⁻¹.

As to B4, the Km was 1770 ± 70 µM and the turnover number (kcat) was found to be 0.43 ± 0.01 s⁻¹.

Turning to B5, the Km was 820 ± 160 µM and the turnover number (kcat) was determined as 7.91 ± 2.14 s⁻¹.

With B6, the Km was 4670 ± 240 µM and the kcat was 12.91 ± 0.06 s⁻¹.

For the molecule B7, the Michaelis constant (Km) was found to be 1470 ± 20 µM and the kcat was determined as 11.67 ± 0.34 s⁻¹.

As for B8, the Michaelis constant (Km) is 12600 ± 2980 µM and the catalytic constant (kcat) amounted to 0.87 ± 0.28 s⁻¹.

Turning to B9, the Michaelis constant (Km) was 1160 ± 90 µM and the kcat was determined as 9.39 ± 1.18 s⁻¹.

Values taken from patent US7892771B2, “Crystal structure of soluble glutaminyl cyclase” (Academia Sinica, priority 2006, dated 2011).
